One may read the stoichiometry N as the number of molecules, sites or subunits per partner or assembly.

This experiment concerns the target α-subunit of the M. tuberculosis open gate 20S core particle (M. tuberculosis) (UniProt P9WHU1). Description: cryo-EM structure.

“α-subunit of the M. tuberculosis open gate 20S core particle (from UniProt P9WHU1 9-248) (domain or fragment)” yielded a stoichiometry N of 7.
